{"source": "patent US20190194664", "test_system": "eGFP-Polη"}
{"substance": "Rad18 mutant lacking the residues phosphorylated by the Cdc7 kinase (Rad18Δ401-445)", "values": [{"measurement": "suppression of UV-dependent Chk1 phosphorylation", "result": "this mutant did not either suppress Chk1 phosphorylation"}]}
